This passage reports Kd results from publication PMC12888920, “MMP-9 regulates disulphide isomerase activity of TGM2 to enhance fusion glycoprotein-mediated syncytium formation of respiratory syncytial virus” (Protein & Cell, 2025).

The test concerns the target T1, purified human MMP-9 (human, UniProt P14780 20-707).
T1 construct: human matrix metalloproteinase 9; May be the same protein as MMP-9-6x His; Methods are in the supplementary file; source: purified
Kind of test: BLI; ForteBio Octet; who was immobilised and buffer not told in the text shown; three biological replicates. The following applies: both partners purified. In general terms: In BLI a coated tip is dipped into the sample, and binding shifts an interference pattern.

T1 sequence (P14780 20-707): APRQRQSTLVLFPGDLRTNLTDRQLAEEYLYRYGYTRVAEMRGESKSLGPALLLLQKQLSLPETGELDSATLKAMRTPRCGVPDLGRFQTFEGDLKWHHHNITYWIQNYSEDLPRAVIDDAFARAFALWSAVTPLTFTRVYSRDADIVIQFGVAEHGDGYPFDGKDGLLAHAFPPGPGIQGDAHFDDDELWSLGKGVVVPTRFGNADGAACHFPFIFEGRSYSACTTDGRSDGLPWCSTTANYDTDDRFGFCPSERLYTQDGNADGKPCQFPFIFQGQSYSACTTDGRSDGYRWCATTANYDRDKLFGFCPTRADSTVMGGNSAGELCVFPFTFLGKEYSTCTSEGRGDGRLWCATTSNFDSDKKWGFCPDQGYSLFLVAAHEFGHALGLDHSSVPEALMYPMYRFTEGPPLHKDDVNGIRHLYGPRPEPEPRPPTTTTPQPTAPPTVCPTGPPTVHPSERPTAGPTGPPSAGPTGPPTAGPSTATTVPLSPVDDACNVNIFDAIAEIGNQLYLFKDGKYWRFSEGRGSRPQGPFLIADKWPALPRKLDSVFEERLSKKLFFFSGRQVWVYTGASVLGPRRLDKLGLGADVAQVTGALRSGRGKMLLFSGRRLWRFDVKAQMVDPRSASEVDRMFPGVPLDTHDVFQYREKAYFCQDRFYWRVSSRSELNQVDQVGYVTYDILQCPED

B1: purified human TGM2 (transglutaminase 2) (enzyme, UniProt P21980 1-687, looked up)
chain: MAEELVLERCDLELETNGRDHHTADLCREKLVVRRGQPFWLTLHFEGRNYEASVDSLTFSVVTGPAPSQEAGTKARFPLRDAVEEGDWTATVVDQQDCTLSLQLTTPANAPIGLYRLSLEASTGYQGSSFVLGHFILLFNAWCPADAVYLDSEEERQEYVLTQQGFIYQGSAKFIKNIPWNFGQFEDGILDICLILLDVNPKFLKNAGRDCSRRSSPVYVGRVVSGMVNCNDDQGVLLGRWDNNYGDGVSPMSWIGSVDILRRWKNHGCQRVKYGQCWVFAAVACTVLRCLGIPTRVVTNYNSAHDQNSNLLIEYFRNEFGEIQGDKSEMIWNFHCWVESWMTRPDLQPGYEGWQALDPTPQEKSEGTYCCGPVPVRAIKEGDLSTKYDAPFVFAEVNADVVDWIQQDDGSVHKSINRSLIVGLKISTKSVGRDEREDITHTYKYPEGSSEEREAFTRANHLNKLAEKEETGMAMRIRVGQSMNMGSDFDVFAHITNNTAEEYVCRLLLCARTVSYNGILGPECGTKYLLNLNLEPFSEKSVPLCILYEKYRDCLTESNLIKVRALLVEPVINSYLLAERDLYLENPEIKIRILGEPKQKRKLVAEVSLQNPLPVALEGCTFTVEGAGLTEEQKTVEIPDPVEAGEEVKVRMDLLPLHMGLHKLVVNFESDKLKAVKGFRNVIIGPA
notes: human transglutaminase 2; the purified protein's band is called full-length TGM2 (100 kDa) in the cleavage assay; The printed 100 kDa for full-length TGM2 is larger than the native protein; also called recombinant TGM2; source: purified
For the molecule B1, the affinity, expressed as Kd, was 1980 nM.

Usually Kd stands for a measure of binding affinity in units of concentration. A low value points to a tighter complex.
